The target in data set [1] is T1, Cdx2 (Mus musculus, UniProt P43241 P43241:1-311).
T1 sequence: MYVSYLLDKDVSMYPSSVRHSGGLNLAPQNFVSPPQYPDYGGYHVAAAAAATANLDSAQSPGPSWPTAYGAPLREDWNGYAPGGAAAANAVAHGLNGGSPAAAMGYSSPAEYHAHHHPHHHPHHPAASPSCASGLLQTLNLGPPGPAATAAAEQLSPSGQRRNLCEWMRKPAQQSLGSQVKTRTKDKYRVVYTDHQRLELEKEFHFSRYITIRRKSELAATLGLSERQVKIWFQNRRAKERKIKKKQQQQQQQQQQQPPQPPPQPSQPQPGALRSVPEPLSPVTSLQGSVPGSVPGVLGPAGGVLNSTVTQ
Nature of the data set: EMSA; supershifted by anti-Cdx2, 10 mM Tris pH 7.5, 50 mM NaCl, 2.5 mM MgCl2, room temp. Conditions: tags: pRc/CMV-Cdx2, TNT Quick-coupled (Promega); label: 32P 5'-end. The procedure: (§1) Electromobility Shift Assay (EMSA). Protein-DNA binding reactions performed in the same buffer as the DNase I protection assay (4% glycerol, 10 mM Tris-HCl (pH 7.5) 50 mM NaCl, 2.5 mM MgCl₂ and 5 mM DTT) included […] of Poly(dI.dC)-Poly(dI.dC) (Amersham Pharmacia Biotech, Piscataway, N.J.) and 30 kcpm of probe. Reactions were initiated by the addition of nuclear extract and incubated for 30 min at room temp to produce protein complexes which were separated on a 6% non-denaturing, polyacrylamide (37.5:1) gel in 0.5× TBE running buffer. Gels were dried prior to visualization of radiolabelled complexes by autoradiography. In competition assays, unlabelled competitor was added to the reaction mixtures at concentrations ranging from 25-fold to 250-fold molar excess of the labeled probe prior to the addition of the nuclear extract. Supershift assays were performed by adding […] of murine Cdx2 antibody after an initial incubation period of 30 min; incubation was then continued for an additional 30 min. Transcribed and translated murine Cdx2 protein was generated in vitro using linearized pRc/CMV-Cdx2 expression vector as a template for the TNT-Quickcoupled Kit (Promega).
(§2) Cdx2 binds specifically to the FP1 probe. To determine whether FP1 is a binding site for Cdx2, labeled FP1 was incubated with in vitro transcribed and translated murine Cdx2. […]

Data set [2] has as its target T1, Cdx2. Nature of the data set: EMSA; no specific complex formed. Conditions: tags: pRc/CMV-Cdx2, TNT Quick-coupled (Promega); label: 32P 5'-end. The procedure:
as §1, §2
For orientation: A gel shift assay detects complexes by their altered migration in electrophoresis.

From patent US20010039016, “Use of expression profiling for identifying molecular markers useful for diagnosis of metastatic cancer” (published 2001) come the findings set out here.

B1: FP1 (dsDNA)
DNA 1: CAGCTAATCTCTCTGTTTATAGCTCTGACCTTTC
DNA 2: GAAAGGTCAGAGCTATAAACAGAGAGATTAGCTG
In the case of B1, the binding result in data set [1] is on record as “binds”.

B2: FP1-CCC (dsDNA)
DNA 1: CAGCTAATCTCTCTGCCCATAGCTCTGACCTTTC
DNA 2: GAAAGGTCAGAGCTATGGGCAGAGAGATTAGCTG
Regarding B2, the binding result in data set [2] is “no binding”.
